Data published in article PMC2190859.

Biological target: collagen
Assay: cell adhesion assay

“very late antigen 4 (VLA-4, alpha4 beta1 integrin) (from UniProt P13612;P05556) (receptor)” gave a percent of cells binding of under 5%.
